Assay results published in PMC6513997.

Biological target: native PRC2 purified from HeLa cells expressing FLAG-tagged EZH2 (not stated | human (endogenous in HeLa)) (UniProt Q15910)
Sequence (Q15910 whole entry, chain 1 of 4): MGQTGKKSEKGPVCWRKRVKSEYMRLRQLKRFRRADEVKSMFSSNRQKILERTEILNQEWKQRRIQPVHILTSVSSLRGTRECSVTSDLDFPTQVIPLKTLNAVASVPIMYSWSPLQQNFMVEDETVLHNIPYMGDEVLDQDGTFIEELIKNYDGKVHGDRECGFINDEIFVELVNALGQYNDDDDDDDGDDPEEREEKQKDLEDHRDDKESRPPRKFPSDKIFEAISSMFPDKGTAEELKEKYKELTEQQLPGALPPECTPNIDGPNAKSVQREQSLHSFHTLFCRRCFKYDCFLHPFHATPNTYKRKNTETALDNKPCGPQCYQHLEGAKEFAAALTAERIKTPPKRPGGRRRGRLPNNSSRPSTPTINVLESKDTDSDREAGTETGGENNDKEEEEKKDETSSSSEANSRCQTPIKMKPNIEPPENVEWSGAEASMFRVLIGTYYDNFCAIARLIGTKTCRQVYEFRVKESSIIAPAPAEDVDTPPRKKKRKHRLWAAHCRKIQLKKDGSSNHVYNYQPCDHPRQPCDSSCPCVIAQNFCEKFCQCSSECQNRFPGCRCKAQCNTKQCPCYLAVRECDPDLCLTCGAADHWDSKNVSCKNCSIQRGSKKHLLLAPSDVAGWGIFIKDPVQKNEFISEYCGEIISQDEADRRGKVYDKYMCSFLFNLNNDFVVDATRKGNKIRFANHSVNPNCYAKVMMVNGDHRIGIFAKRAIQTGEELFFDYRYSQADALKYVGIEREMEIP
Sequence (Q15022 whole entry, chain 2 of 4, further chain): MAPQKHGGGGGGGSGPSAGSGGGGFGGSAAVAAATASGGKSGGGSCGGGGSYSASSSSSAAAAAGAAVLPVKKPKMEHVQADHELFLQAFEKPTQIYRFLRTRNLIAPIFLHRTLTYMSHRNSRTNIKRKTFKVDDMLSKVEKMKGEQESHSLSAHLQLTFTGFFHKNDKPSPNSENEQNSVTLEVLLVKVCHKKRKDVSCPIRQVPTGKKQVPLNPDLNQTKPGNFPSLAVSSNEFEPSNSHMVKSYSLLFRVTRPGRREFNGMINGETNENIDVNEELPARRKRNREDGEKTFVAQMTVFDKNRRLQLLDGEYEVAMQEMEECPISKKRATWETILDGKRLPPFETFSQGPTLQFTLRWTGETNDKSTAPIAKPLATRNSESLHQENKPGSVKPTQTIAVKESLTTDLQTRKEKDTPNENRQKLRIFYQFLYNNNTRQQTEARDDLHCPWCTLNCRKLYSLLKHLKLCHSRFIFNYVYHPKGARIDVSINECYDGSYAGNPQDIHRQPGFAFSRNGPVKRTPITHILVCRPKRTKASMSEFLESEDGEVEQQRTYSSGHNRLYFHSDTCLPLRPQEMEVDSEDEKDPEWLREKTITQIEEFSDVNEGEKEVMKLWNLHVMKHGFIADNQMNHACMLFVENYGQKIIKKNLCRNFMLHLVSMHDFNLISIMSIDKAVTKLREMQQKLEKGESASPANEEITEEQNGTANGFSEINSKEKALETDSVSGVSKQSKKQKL
Sequence (O75530 2-441, chain 3 of 4, further chain): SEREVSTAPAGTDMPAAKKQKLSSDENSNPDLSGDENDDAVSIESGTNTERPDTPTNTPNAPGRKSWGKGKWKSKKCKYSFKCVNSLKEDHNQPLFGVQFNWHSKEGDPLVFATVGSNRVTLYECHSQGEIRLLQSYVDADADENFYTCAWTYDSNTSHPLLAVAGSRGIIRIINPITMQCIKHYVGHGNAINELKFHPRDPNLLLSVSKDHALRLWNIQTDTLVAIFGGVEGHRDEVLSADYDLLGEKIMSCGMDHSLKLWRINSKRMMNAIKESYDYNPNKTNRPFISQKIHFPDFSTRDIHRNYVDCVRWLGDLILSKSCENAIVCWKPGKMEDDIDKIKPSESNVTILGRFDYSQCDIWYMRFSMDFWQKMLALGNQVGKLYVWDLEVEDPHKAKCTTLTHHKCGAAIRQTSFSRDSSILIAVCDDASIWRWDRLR
Sequence (Q09028 2-425, chain 4 of 4, further chain): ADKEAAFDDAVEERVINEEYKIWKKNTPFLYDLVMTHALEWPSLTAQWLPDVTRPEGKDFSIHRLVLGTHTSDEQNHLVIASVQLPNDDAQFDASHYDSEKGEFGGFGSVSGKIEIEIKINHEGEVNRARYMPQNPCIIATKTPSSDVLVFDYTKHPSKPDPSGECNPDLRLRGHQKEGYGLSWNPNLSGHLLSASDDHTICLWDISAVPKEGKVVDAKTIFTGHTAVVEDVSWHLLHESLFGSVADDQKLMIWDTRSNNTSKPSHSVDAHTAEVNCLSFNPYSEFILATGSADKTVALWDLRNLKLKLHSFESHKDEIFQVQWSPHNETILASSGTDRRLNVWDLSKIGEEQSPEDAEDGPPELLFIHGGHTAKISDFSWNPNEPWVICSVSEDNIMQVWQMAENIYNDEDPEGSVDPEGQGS

Chain of full length recombinant EZHIP WT, 6x-His-tagged (natural protein) (Q86X51 whole entry): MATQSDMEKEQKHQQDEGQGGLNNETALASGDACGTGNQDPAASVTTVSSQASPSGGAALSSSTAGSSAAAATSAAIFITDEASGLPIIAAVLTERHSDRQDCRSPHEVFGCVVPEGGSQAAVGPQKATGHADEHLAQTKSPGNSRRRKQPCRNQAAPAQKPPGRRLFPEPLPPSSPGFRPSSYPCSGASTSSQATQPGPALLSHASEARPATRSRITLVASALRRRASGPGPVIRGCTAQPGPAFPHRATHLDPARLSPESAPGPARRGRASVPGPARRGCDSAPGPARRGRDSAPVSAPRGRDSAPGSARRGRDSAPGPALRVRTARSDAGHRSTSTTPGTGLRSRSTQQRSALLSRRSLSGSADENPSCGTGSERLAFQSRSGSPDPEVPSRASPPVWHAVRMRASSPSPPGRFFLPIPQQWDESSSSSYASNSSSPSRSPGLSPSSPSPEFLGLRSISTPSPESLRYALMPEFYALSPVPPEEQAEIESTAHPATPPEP

IC50 of PRC2-catalyzed methylation of oligonucleosomes, in vitro methyltransferase assay, EZHIP titrated: 50 nM
Substance: full length recombinant EZHIP WT, 6x-His-tagged (natural protein)
